Data set [1] is described as follows: Pharmacokinetics (half-life) in guinea pigs. The conditions noted are these: 0.5 μmol/kg i.v., ex-vivo plasma anti-Xa activity, compared to reference GpIIb/IIIa antagonists (XVII, XIX, XX by LC-MS/MS). The method, then:
Guinea pigs (DH) were administered 0.5 μmol/kg (i.v.) of anticoagulant. The half-life of the pentasaccharide XXII, the “parent” of the oligosaccharide part of the conjugates, and conjugate VIII were indirectly assigned by ex-vivo determination of plasma anti-Xa activity at specific time-intervals as described above. The half-lives of the reference GPIIb/IIIa antagonists XVII, XIX and XX (see Scheme 10) were determined by measuring the plasma concentration at specific time-intervals using LC-MS/MS.

Another data set deals with Bovine factor Xa. As to the kind of experiment: Determination of anti-factor Xa activity in buffer (microtiter plate method, AT-III mediated). Type of data set: biochemical. The conditions noted are these: Kabi buffer, human AT-III. From the text: II. Determination of Anti-Factor Xa Activity in Buffer
(Microtiter Plate Method)
Anticoagulants can inhibit Xa directly or, like heparin, by potentiating the inhibitory activity of AT-III. Anti-Xa activity can be assessed by determination of the rate of hydrolysis of the chromogenic substrate S-2222 in the presence of AT-III. This assay is used to determine anti-Xa activity of heparinoid preparations in Kabi buffer.
Test medium: Kabi buffer.
Ref. compound: International standard heparin (11.4 anti-Xa U/mg).
Composition of the buffer: NaCl 10.17 g (174 mmol); edetate disodium dihydrate 3.26 g (9.6 mmol); tromethamine (Tris) 6.11 g (50.4 mmol); made up to 1 L with ultrapure H2O *. The pH of the solution is adjusted to 7.4 with hydrochloric acid (0.10 mol/L)
Bovine factor Xa (Kabi Diagnostica, Stockholm, Sweden) is dissolved in Kabi buffer to give a solution containing 1.5 U/mL (0.75 nKat/mL). • 3. S-2222 solution
S-2222 (Kabi Diagnostica) is dissolved in ultrapure H2O to give a solution containing 0.375 mg/mL (0.5 mmol/L). • 4. AT-III solution
Human AT-III (Kabi Diagnostica) is dissolved in Kabi buffer to give a solution containing 0.25 U/mL. A fresh solution has to be prepared daily. • 5. Standard solution of the calibration sample
Standard heparin is dissolved in Kabi buffer to give a standard solution containing approx. 0.25 anti-Xa U/mL.
Each preparation is dissolved in ultrapure H2O and diluted with Kabi buffer to the required concentrations in the range of 0.02-0.2 anti-Xa U/mL
Each test sample (0.05 mL) is pipetted into a well of a microtiter plate at RT. AT-III solution (0.05 mL) is added to each sample and the plate is shaken using a Vari-shaker.
An aliquot of Xa solution (0.05 mL) is pipetted into each well 10 min following addition of AT-III solution and the plate is shaken again. Exactly 2 min following addition of Xa solution, 0.1 mL S-2222 solution is pipetted into each well and the plate is shaken again. For all additions a 12-channel pipette is used.
The remaining amount of Xa catalyses the hydrolysis of S-2222, the rate of which is measured photometrically following incubation periods of 2 and 22 min respectively at RT. The absorbance of each sample is measured at 405 nm using a Reader Microelisa, model 310C (Organon Teknika, Oss, The Netherlands) and the increase in absorbance (ΔOD) is calculated. Each test sample is determined in duplicate. With every 10 samples, a blank (0.05 mL Kabi buffer) is included.
From an aliquot of the standard solution of the calibration sample a range of dilutions is made (dilution factor 1,3 for heparin samples). The resulting standard samples (approx. 15 samples) should contain between 0.01-0.25 anti-Xa U/mL. […]
For each sample the mean anti-Xa activity in U/mL is determined using the calibration curve. […]

Among the data in patent US7576071B2, “Antithrombotic compound” (sanofi-aventis, priority 2004, dated 2009) are half life and Anti-Xa activity values, retold here.

Counter-ions that a name gives are not always drawn.

As for `CO[C@H]1O[C@H](COS(=O)(=O)O)[C@@H](O[C@@H]2O[C@@H](C(=O)O)[C@@H](O[C@H]3O[C@H](COS(=O)(=O)O)[C@@H](O[C@@H]4O[C@H](C(=O)O)[C@@H](O[C@H]5O[C@H](COS(=O)(=O)O)[C@@H](OCCOCCOCCOCCNC(=O)COCCOCCOCCOCCNC(=O)[C@H](CC(=O)O)NC(=O)[C@@H]6CCCN(C(=O)CCC7CCNCC7)C6)[C@H](OC)[C@H]5OC)[C@H](OC)[C@H]4OC)[C@H](OS(=O)(=O)O)[C@H]3OS(=O)(=O)O)[C@H](OC)[C@H]2OC)[C@H](OC)[C@H]1OS(=O)(=O)O` [Compound VIII, sodium salt], the half life entry in data set [1] is “significantly prolonged”. Further, the Anti-Xa activity in the data set with Bovine factor Xa (substrate S-2222, calibrated against standard heparin) was determined as 605 ± 43 U/mg; in the data set on Bovine factor Xa (substrate S-2222, per nmol (from U/mg and Mw)), 1.45 U/nmol.
